Source: the nanobody polyreactivity screen of Harvey et al. (2022)

Experiment: yeast display, Sf9 membrane polyspecificity reagent, FACS + sequencing; frameworks hold sequencing errors
Method in brief: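 In a synthetic yeast display library (Saccharomyces cerevisiae BJ5465), nanobody expression was induced with galactose for 36–48 hours. FACS gates were set low and high (top ~1%) using anti-HA fluorescence for expression and streptavidin fluorescence for binding of the Sf9 membrane reagent. Each polyreactivity label is drawn from the gate of origin.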

Row | Sequence | polyreactivity (PSR sort gate)
1 | QVQLVESGGGLVQAGGSLRLSCAASGFTFGDYVMGWYRQAPGKERELVAAITTSGTRTSYADSVKGRFTISRDNAKNTVYLQMNSLKPEDTAVYYCAAEHTNYYYFWQAHYYWGQGTQVTVSS | high polyreactivity
2 | QDQLEESGGGLVQAGGSLRLSCAASGYTISPNDMGWYRQAPGKERELVAAITSSVGSTYYADSVKGRFSFSRDNAKNTVYLQMKSLKPEDTAVYYYWGQGTQVTVSS | low polyreactivity
3 | QVQLVESGGGLVQAGGSLRISCAASGITLYDNVMGWYRQAPGKERELVAAISSSGTTKYYADSVKGRFTMSRDHANNTVYLQMNSLKPEDTAGSYCAADGITWYAIAYYYWGQGTQVTVSS | high polyreactivity
4 | QVQLVESGGGLVQAGGSLRLSCTASGIIFGTYAMGLYRQAPGKERELVAAISSSGVSTYYADSVKGRFTISRDNAKNTVYLQMNSLKPEDTAVYYCAAPLHYGYYYWGQGTQVTVSS | high polyreactivity
5 | QVQLVESGGGLVQAGGSLRLSCAASGRIFPAYTMGWYRQAPGKERELVAAITWSGGSTYYADSVKGRFTISRDNAKNTVYLQMNSLKPEDTAVYYCAADKLYWYYGTEYGYWGQGTQVTVSS | low polyreactivity
6 | QVQLVESGGGLVQAGGSLRLSCAASGRIFATYVMGGYRQAPGKERELVATISSGGSTNYADSVKGRFTISRDNAKNTVYLQMNSLKPEDTAVYYCAVVDGNYWYVKGDYWGQGTQVTVSS | low polyreactivity
7 | QVQLVESGGGLVQAGGSLRLSCAASGRTFPGNAMGWYRQAPGKERELVAAISKSSSRTYYADSVKGRFTISRDNAKNTVYLQMNSLKPEDTAVYYCAASSFNNGHRYDYWGQGTQVTVSS | high polyreactivity
8 | QVQLVESGGGLFQEGGSLRLSCAASGSIFNGYAMGWYRQAPGKEREFVDAITFSATSTYYADSVKRRFTLSRDNAKNTVYLQMNSLKPEDTAVYYCAVAVPLSRYWWRRTYDYWGQGTQVTVSS | low polyreactivity
9 | HVQLVESGGGLVQAGGSLRLSCAASGRTFARYAMGWYRQAPGKERELVAAITRGGRTNYADSVKGRFTSSRDNAKNTVYLQMNSLKPEDTAVYYCNAYFVNPYDYWGQGTQVTVSS | high polyreactivity
10 | QVQLVESGGGLVQAGGSLRLSCAASGSTFYAYAMGSYRQSPGKERELVAVITSGGTTKYADSVKGRFTISRDNAKNTVYLQLNSLKPEDTAVYYCNVAGRDYAVRWGSFVFWGQGTQVTVSS | low polyreactivity
11 | QVQLVESGGGLVQAGGSLRLSCAASGSTITSYAMRLYRQAPGKDRELVASISRSGGRTYYADSVKGRFTISRDNAKNTVYLQMNSLKPEDTAVYYCAADDYSATTRYYYWGQGTQVTVSS | high polyreactivity
12 | QVQLVESGGGLVQAGGSLRLSCAASGIIFGYYAMGGYRQAPGKERELVAAISSRGSRTYYADSVKGRFTISRDNAKNTVYLQMNSLKPEDTAVYYCAARHFARMGYWGQGTQVTVSS | high polyreactivity
13 | QVQLVESGGGLVQAGGSLRLSCAASGSIFGRNAMGWYRQAPGKEREFVATITSRGGRTYYADSVKGRFTISRDNAKNTVYLQMNSLKPEYTAVYYCAADTYISTLKKYRLGDYWGQGTQVTVSS | low polyreactivity
14 | QDQLVESGGCLVQAGGSLRLSCAASGSTFRSNAMGWYRQAPGKERELVAAISRGGSTNYADSVKGRFTISRDNAKNTVYLQMNSLKTEDTAVYYCNADWDYRDFYDITYDYWGQGTQVTVSS | low polyreactivity
15 | QVQLVESGGGLVQAGGSLRLSCAASGSISYYNAMGWYRQAPGKERELVATITDSGGSTYYADSVKGRFTISRDNAKNTVYLQMNSLKPEDTAVYYCNADYWAVNYDYWGQGSQVTVSS | low polyreactivity
16 | QVQLVESGGGLVQAGGSLRLSCAASGFTFAYNAMGWYRQAPGKERELVAAITVSGGRTYYADSVKGRFTISRDNAKNTVYLQMNSLKPEDTAVYYCAATVRVRTNSWMDYWGQGTQVTVSS | low polyreactivity
17 | QVQLVESGGGLVQAGGSLRLTCAPSGFIFTPNAIGWYRQAPGKERELVAAISRGGGSTYYADSVKGRFTISRDNAKNTVYLQMNSLKPQDTAVYYCNARSKNGGTTFGYWGEGTQVTVSS | high polyreactivity
